Data reported in article doi:10.1101/2021.09.22.461404 (bioRxiv, 2021).

Biological target: the molecule itself
Test: crystal structure

B1: closed-gate E71V KcsA (C-terminal tail removed by chymotrypsin) (domain or fragment)
chain: PMLSGLLARLVKLLLGRHGSALHWRAAGAATVLLVIVLLAGSYLAVLAERGAPGAQLITYPRALWWSVVTATTVGYGDLYPVTLWGRLVAVVVMVAGITSFGLVTAALATWFVGREQERRGH
  stoichiometry N: 4
